Patent publication US20190055510A1, “WELL PLATE-BASED PERFUSION CULTURE MODEL OF ENDOSTEAL-EXTRACELLULAR MATRIX (ECM)-AND ENDOTHELIAL-MYELOMA INTERACTIONS AND METHODS FOR TESTING PERSONALIZED THERAPEUTICS FOR MULTIPLE MYELOMA” (Hackensack University Medical Center, priority 2016, published 2019)

What was measured:
Type in all cases: cell-based, human
CD138+ PMMCs [1] = experiment: Drug response of CD138+ PMMCs co-cultured with osteoblast (OSB) tissue in 96-well plate-based perfusion culture, viability by flow cytometry; conditions: cultured with OSBs
Experimental: Using the 96-well plate-based culture platform described in Example 2, osteoblasts (OSBs) (hFOB 1.19 cell line) were cultured for 4 days at 20% O2 tension to form an ossified tissue structure. Patient bone marrow mononuclear cells (BMMCs) containing PMMCs, were seeded on the ossified tissue structure and cultured for up to 5 weeks. […] When O2 tension was decreased to 1%, the proliferation rate of PMMCs decreased (FIG. 2C) while their viability was not compromised (data not shown). […] PMMCs also acquired cell adhesion mediated drug resistance (CAM-DR) due to the adhesive interactions with OSBs.
The response of PMMCs to two commonly used drugs to treat MM patients: (1) carfilzomib, a proteasome inhibitor; and (2) melphalan, which is often used to treat newly diagnosed MM patients along with stem-cell transplantation, was evaluated. OSB tissue was cultured for 4 days either at 1 or 20% O2 prior to seeding of PMMCs. After seeding, PMMC-OSB cultures were dosed with either carfilizomib or melphalan. After 24 h, flow cytometry was used to analyze the viability of CD138+PMMCs. […] Dual Inhibition Of Mcl-1 By The Combination Of Carfilzomib and TG02 In Multiple Myeloma, (2013)). […] British journal of haematology 152, 579-592, doi:10.1111/j.1365-2141.2010.08533.x. (2011); Xiang, Y. et al. Monitoring a Nuclear Factor-κB Signature of Drug Resistance in Multiple Myeloma. […]

CD138+ PMMCs [2] = experiment: Drug response of CD138+ PMMCs cultured in fibrin; conditions: in contrast to culture with OSBs (FIG. 3B)
Experimental: The response of PMMCs to two commonly used drugs to treat MM patients: (1) carfilzomib, a proteasome inhibitor; and (2) melphalan, which is often used to treat newly diagnosed MM patients along with stem-cell transplantation, was evaluated. OSB tissue was cultured for 4 days either at 1 or 20% O2 prior to seeding of PMMCs. After seeding, PMMC-OSB cultures were dosed with either carfilizomib or melphalan. After 24 h, flow cytometry was used to analyze the viability of CD138+PMMCs. […] Dual Inhibition Of Mcl-1 By The Combination Of Carfilzomib and TG02 In Multiple Myeloma, (2013)). […] British journal of haematology 152, 579-592, doi:10.1111/j.1365-2141.2010.08533.x. (2011); Xiang, Y. et al. Monitoring a Nuclear Factor-κB Signature of Drug Resistance in Multiple Myeloma. Molecular & Cellular Proteomics 10, doi:10.1074/mcp.M110.005520 (2011)).
In this study, fibrin was used to reconstruct extracellular matrix (ECM) niche tissue containing patient bone marrow mononuclear cells (BMMCs). […]

3D-osteocytes (OSTs) = experiment: Continuous PTH treatment of 3D-reconstructed osteocytes, relative gene expression; conditions: 50 nM PTH for 2 days, compared to no treatment and 2D-OSTs controls (FIG. 4F)
Text: Cells and biphasic calcium phosphate (BCP) or polystyrene (PS) microbeads in the range of 20-25 μm (i.e, 20 μm, 21 μm, 22 μm, 23 μm, 24 μm and 25 μm) in diameter were assembled into the culture chamber, via forced liquid withdrawal through the PC membrane, to form a close-packed structure (FIG. 1). […] The cells entrapped within the interstitial spaces between the microbeads formed a 3D cellular network by extending and connecting their processes through openings between the microbeads over 2 weeks. […] The observed O2 tension effects are similar to those reported on the osteocytic differentiation of OSBs (Hirao, M. et al. Oxygen tension is an important mediator of the transformation of osteoblasts to osteocytes. Journal of bone and mineral metabolism 25, 266-276, doi:10.1007/s00774-007-0765-9 (2007); Chen, D. et al. HIF-1alpha inhibits Wnt signaling pathway by activating Sost expression in osteoblasts. PloS one 8, e65940, doi:10.1371/journal.pone.0065940 (2013); Clinkenbeard, E. L. et al. Neonatal iron deficiency causes abnormal phosphate metabolism by elevating FGF23 in normal and ADHR mice. Journal of bone and mineral research: the official journal of the American Society for Bone and Mineral Research 29, 361-369, doi:10.1002/jbmr.2049 (2014)).
In order to characterize the regulatory functions of 3D-osteocytes (OSTs) on osteoclastogenesis and osteoblastic development, the effects of continuous parathyroid hormone (PTH) treatment was evaluated.

Molecule: CC(C)C[C@H](NC(=O)[C@H](CCc1ccccc1)NC(=O)CN1CCOCC1)C(=O)N[C@@H](Cc1ccccc1)C(=O)N[C@@H](CC(C)C)C(=O)[C@@]1(C)CO1 [carfilzomib]
- response (viability) of CD138+ PMMCs to carfilzomib (CD138+ PMMCs [1]; 100 nM carfilzomib, 20% O2, 24 h, flow cytometry (FIG. 3A)): significant resistance

Molecule: N[C@@H](Cc1ccc(N(CCCl)CCCl)cc1)C(=O)O [melphalan]
- response (viability) of CD138+ PMMCs to melphalan (CD138+ PMMCs [1]; 100 μM melphalan, both 1 and 20% O2, 24 h, flow cytometry (FIG. 3B)): highly resistant
- sensitivity of CD138+ PMMCs to melphalan (CD138+ PMMCs [2]): significantly more sensitive

B1: parathyroid hormone (protein, UniProt P01270 32-115, looked up)
Parathyroid hormone: SVSEIQLMHNLGKHLNSMERVEWLRKKLQDVHNFVALGAPLAPRDAGSQRPRKKEDNVLVESHEKSLGEADKADVNVLTKAKSQ
modifications: Parathyroid hormone
notes: parathyroid hormone, known to induce OSTs to increase RANKL and decrease OPG and SOST gene expression
- FGF23 gene expression (3D-osteocytes (OSTs)): decreased
- OPG gene expression (3D-osteocytes (OSTs)): decreased
- RANKL gene expression (3D-osteocytes (OSTs)): increased
- SOST gene expression (3D-osteocytes (OSTs)): decreased
